Test results reported in patent US12104178B2, “DHFR tunable protein regulation” (Obsidian Therapeutics, Inc., priority 2017, dated 2024).
Like-named read-outs stand apart in the source and are kept apart here.

B1: OT-RLuc-006: DD regulated Renilla luciferase (protein)
chain: MTSKVYDPEQRKRMITGPQWWARCKQMNVLDSFINYYDSEKHAENAVIFLHGNAASSYLWRHVVPHIEPVARCIIPDLIGMGKSGKSGNGSYRLLDHYKYLTAWFELLNLPKKIIFVGHDWGACLAFHYSYEHQDKIKAIVHAESVVDVIESWDEWPDIEEDIALIKSEEGEKMVLENNFFVETMLPSKIMRKLEPEEFAAYLEPFKEKGEVRRPTLSWPREIPLVKGGKPDVVQIVRNYNAYLRASDDLPKMFIESDPGFFSNAIVEGAKKFPNTEFVKVKGLHFSQEDAPDEMGKYIKSFVERVLKNEQSGISLIAALAVDYVIGMENAMPWNLPADLAWFKRNTLNKPVIMGRHTWESIGRPLPGRKNIILSSQPGTDDRVTWVKSVDEAIAACGDVPEIMVIGGGRVIEQFLPKAQKLYLTHIDAEVEGDTHFPDYEPDDWESVFSEFHDADAQNSHSYCFEILERR
B2: OT-RLuc-004: DD regulated Renilla luciferase (protein)
chain: MISLIAALAVDYVIGMENAMPWNLPADLAWFKRNTLNKPVIMGRHTWESIGRPLPGRKNIILSSQPGTDDRVTWVKSVDEAIAACGDVPEIMVIGGGRVIEQFLPKAQKLYLTHIDAEVEGDTHFPDYEPDDWESVFSEFHDADAQNSHSYCFEILERRSGTSKVYDPEQRKRMITGPQWWARCKQMNVLDSFINYYDSEKHAENAVIFLHGNAASSYLWRHVVPHIEPVARCIIPDLIGMGKSGKSGNGSYRLLDHYKYLTAWFELLNLPKKIIFVGHDWGACLAFHYSYEHQDKIKAIVHAESVVDVIESWDEWPDIEEDIALIKSEEGEKMVLENNFFVETMLPSKIMRKLEPEEFAAYLEPFKEKGEVRRPTLSWPREIPLVKGGKPDVVQIVRNYNAYLRASDDLPKMFIESDPGFFSNAIVEGAKKFPNTEFVKVKGLHFSQEDAPDEMGKYIKSFVERVLKNEQ
B3: OT-DHFRC-029: combination mutant hDHFR (I17V, Y122I) (protein, UniProt P00374 1-187, looked up, variant I17V Y122I)
Dihydrofolate reductase: MVGSLNCIVAVSQNMGVGKNGDLPWPPLRNEFRYFQRMTTTSSVEGKQNLVIMGKKTWFSIPEKNRPLKGRINLVLSRELKEPPQGAHFLSRSLDDALKLTEQPELANKVDMVWIVGGSSVIKEAMNHPGHLKLFVTRIMQDFESDTFFPEIDLEKYKLLPEYPGVLSDVQEEKGIKYKFEVYEKND
B4: OT-hDHFRC-030: combination mutant hDHFR (Y122I, M140I) (protein, UniProt P00374 1-187, looked up, variant Y122I M140I)
Dihydrofolate reductase: MVGSLNCIVAVSQNMGIGKNGDLPWPPLRNEFRYFQRMTTTSSVEGKQNLVIMGKKTWFSIPEKNRPLKGRINLVLSRELKEPPQGAHFLSRSLDDALKLTEQPELANKVDMVWIVGGSSVIKEAMNHPGHLKLFVTRIIQDFESDTFFPEIDLEKYKLLPEYPGVLSDVQEEKGIKYKFEVYEKND
B5: OT-hDHFRC-032: combination mutant hDHFR (Y122I, H131R, E144G) (protein, UniProt P00374 1-187, looked up, variant Y122I H131R E144G)
Dihydrofolate reductase: MVGSLNCIVAVSQNMGIGKNGDLPWPPLRNEFRYFQRMTTTSSVEGKQNLVIMGKKTWFSIPEKNRPLKGRINLVLSRELKEPPQGAHFLSRSLDDALKLTEQPELANKVDMVWIVGGSSVIKEAMNHPGRLKLFVTRIMQDFGSDTFFPEIDLEKYKLLPEYPGVLSDVQEEKGIKYKFEVYEKND
B6: OT-hDHFRC-031: combination mutant hDHFR (N127Y, Y122I) (protein, UniProt P00374 1-187, looked up, variant N127Y Y122I)
Dihydrofolate reductase: MVGSLNCIVAVSQNMGIGKNGDLPWPPLRNEFRYFQRMTTTSSVEGKQNLVIMGKKTWFSIPEKNRPLKGRINLVLSRELKEPPQGAHFLSRSLDDALKLTEQPELANKVDMVWIVGGSSVIKEAMYHPGHLKLFVTRIMQDFESDTFFPEIDLEKYKLLPEYPGVLSDVQEEKGIKYKFEVYEKND
B7: OT-RLuc-005: DD regulated Renilla luciferase (protein)
chain: MTSKVYDPEQRKRMITGPQWWARCKQMNVLDSFINYYDSEKHAENAVIFLHGNAASSYLWRHVVPHIEPVARCIIPDLIGMGKSGKSGNGSYRLLDHYKYLTAWFELLNLPKKIIFVGHDWGACLAFHYSYEHQDKIKAIVHAESVVDVIESWDEWPDIEEDIALIKSEEGEKMVLENNFFVETMLPSKIMRKLEPEEFAAYLEPFKEKGEVRRPTLSWPREIPLVKGGKPDVVQIVRNYNAYLRASDDLPKMFIESDPGFFSNAIVEGAKKFPNTEFVKVKGLHFSQEDAPDEMGKYIKSFVERVLKNEQSGGVQVETISPGDGRTFPKRGQTCVVHYTGMLGDGKKVDSSRDRNKPFKFMLGKQEVIRGWEEGVAQMSVGQGAKLTISPDYAYGATGHPGIIPPHATLVFDVELLELE
B8: OT-RLuc-001: constitutive Renilla luciferase construct (protein, listed as Renilla reniformis)
chain: MTSKVYDPEQRKRMITGPQWWARCKQMNVLDSFINYYDSEKHAENAVIFLHGNAASSYLWRHVVPHIEPVARCIIPDLIGMGKSGKSGNGSYRLLDHYKYLTAWFELLNLPKKIIFVGHDWGACLAFHYSYEHQDKIKAIVHAESVVDVIESWDEWPDIEEDIALIKSEEGEKMVLENNFFVETMLPSKIMRKLEPEEFAAYLEPFKEKGEVRRPTLSWPREIPLVKGGKPDVVQIVRNYNAYLRASDDLPKMFIESDPGFFSNAIVEGAKKFPNTEFVKVKGLHFSQEDAPDEMGKYIKSFVERVLKNEQ

What was measured:
[1] = cited from earlier work; for Duration of action: in vivo
HCT-116 cells = experiment: DD regulated luciferase, western blot and luciferase activity; format: cell-based, human; details: 1 μM Shield-1 or 10 μM Trimethoprim, 24 h
Excerpt: DD regulated luciferase can be used to track cells in vivo e.g. T cells. Firefly luciferase or Renilla luciferase may be utilized as the payload. HCT-116 cells were stably transduced with the constitutive (OT-RLuc-001) or DD regulated constructs (OT-RLuc-002, OT-RLuc-003, OT-RLuc-004, OT-RLuc-005 and OT-RLuc-006). […] Blots were also probed with anti-GAPDH antibody to ensure uniform protein loading in all samples. […] (FIG. 59A).
Ligand dependent activity of Renilla and firefly luciferase constructs was measured using coelentrazine and luciferin substrates respectively. […] Luciferase activity was measured as luminescence reading using a luminometer and the values were compared to control samples consisting of lysis buffer and substrate.

HCT116 cells = experiment: Combination mutation analysis, TMP dose response MFI; format: cell-based, human
Excerpt: Mutations identified by random mutagenesis were combined with mutations identified by site directed mutagenesis.

Molecule	Luciferase stabilization by western blot (FIG. 59A) (HCT-116 cells)	MFI (HCT116 cells; DMSO, 48 h)	Stabilization ratio (HCT116 cells; TMP dose (log) −4)	MFI (HCT116 cells; TMP dose (log) −4, 48 h)	Stabilization ratio (HCT116 cells; TMP dose (log) −4.48)	MFI (HCT116 cells; TMP dose (log) −4.48, 48 h)	Stabilization ratio (HCT116 cells; TMP dose (log) −4.95)	MFI (HCT116 cells; TMP dose (log) −4.95, 48 h)	Stabilization ratio (HCT116 cells; TMP dose (log) −5.43)	MFI (HCT116 cells; TMP dose (log) −5.43, 48 h)	Stabilization ratio (HCT116 cells; TMP dose (log) −5.91)	MFI (HCT116 cells; TMP dose (log) −5.91, 48 h)	Stabilization ratio (HCT116 cells; TMP dose (log) −6.39)	MFI (HCT116 cells; TMP dose (log) −6.39, 48 h)	Stabilization ratio (HCT116 cells; TMP dose (log) −6.86)	MFI (HCT116 cells; TMP dose (log) −6.86, 48 h)	further results
COc1cc(Cc2cnc(N)nc2N)cc(OC)c1OC [Trimethoprim]																	Cmax ([1]; IV, approved dose IV 20 mg/kg/6 hr): 25000 nM; Cmax ([1]; PO, approved dose PO up to 20 mg/kg/day): 1000 nM; Duration of action [1]: 2 to 72 h
CN(Cc1cnc2nc(N)nc(N)c2n1)c1ccc(C(=O)N[C@@H](CCC(=O)O)C(=O)O)cc1 [Methotrexate]																	Cmax ([1]; 12 g/m^2 infusion): 1500 nM; Duration of action [1]: >12 h
B1	modest stabilization of Renilla luciferase in the presence of their corresponding ligand																
B2	modest stabilization of Renilla luciferase in the presence of their corresponding ligand																
B3		3041	52.17	158659	37.93	115339	21.76	66170	7.71	23454	2.29	6966	1.43	4355	1.13	3439	
B4		2539	26.28	66732	8.23	20890	2.62	6641	1.38	3494	1.09	2766	1.03	2618	1.04	2643	
B5		2627	18.99	49891	4.66	12247	1.94	5092	1.24	3246	1.08	2826	1.03	2694	1.03	2704	
B6		2565	56.59	145144	38.52	98805	20.77	53282	6.14	15743	2.17	5576	1.30	3345	1.14	2922	
B7	modest stabilization of Renilla luciferase in the presence of their corresponding ligand																
B8	expression of Renilla luciferase both in the presence and absence of ligand																Luciferase activity (FIG. 59B) (HCT-116 cells): high luciferase activity both in the presence and absence of ligand
